From patent publication US20180125993A1 (BEIJING COTIMES BIOTECH COMPANY LIMITED, priority 2014, published 2018)

Tests used:
colon cancer, CS182, 5# = test: Patients primary tumor tissue subcutaneous model (Day 27 after treatment); format: in vivo, nude mice; details: HuCTB006 10 mg/kg i.v. QW × 3w
Text: Fresh primary tumor tissues from patients were implanted in NOD/SCID mice's flank, which developed into a primary tumor, which was then transferred to the nude mice's flank to allow the tumor reaching an exponential growth phase, and the tumor was named 1# tumor, and so on. When the tumor volume and number reached passage requirements, they were implanted into the right flank of nude mice. When the tumors' average volumes reached 100-200 mm^3, the mice were grouped.
The bodyweight and major/minor axis of mice were measured twice a week, and Tumor Growth Inhibition (TGI) and tumor volume were calculated same as in 5.1.5. In addition, to evaluate the synergetic effect of drug combination in tumor growth, Jin Zhengjun Q value judgment method was used with the follow formula: Q=Ea+b/(Ea+Eb−Ea×Eb). Ea+b is the inhibition ratio of drug combination, Ea and Eb are the inhibition ratio of each of drug treatment when it is administered alone. […] The animals were monitored, and when the experiments were concluded, mice were sacrificed and tumors were extracted and weighted. All the animal experiments confer to the regulations of animal's welfare and the management of experimental animal usage.
Tumor volumes were represented with average±standard error. Data analysis was done using Spss16.0, One-Way ANOVA, LSD (homogeneity of variance) or Dunnett T3 (non-homogeneity of variance). […] P<0.05 represents significant difference.

HCC1954 = test: In vitro cytotoxic sensitivity of CTB006; format: cell-based, human; details: HCC1954, Breast cancer
7402 = test: In vitro cytotoxic sensitivity of CTB006; format: cell-based, human; details: 7402, Liver cancer
Daudi = test: In vitro cytotoxic sensitivity of CTB006; format: cell-based, human; details: B cell lymphoma
A549 = test: In vitro cytotoxic sensitivity of CTB006; format: cell-based, human; details: A549, Lung cancer
PANC-1 = test: In vitro cytotoxic sensitivity of CTB006; format: cell-based, human; details: PANC-1, Pancreatic cancer
N87 = test: In vitro cytotoxic sensitivity of CTB006; format: cell-based, human; details: N87, Stomach cancer
BGC803 = test: In vitro cytotoxic sensitivity of CTB006; format: cell-based, human; details: BGC803, Stomach cancer
BT-20 = test: In vitro cytotoxic sensitivity of CTB006; format: cell-based, human; details: BT-20, Breast cancer
2-LMP = test: Cytotoxicity on human tumor cell lines (ATPLite Assay Kit); format: cell-based; details: Breast cancer
Protocol: (§1) Eighteen human tumor cell lines were treated with 62.5, 125, 250, 500, or 1000 ng/mL HuCTB006 or different concentrations of chemotherapy drugs, which act as positive controls. […] The culture medium for SK-Hep-1, HepG2, HCT116, SW480, WiDr (1×NEAA), MIA-PaCa-2 (2.5% Horse serum) MDA-MB-231 (1 mM NaPyr, 1×MEM-NEAA, 1×MEM VITAMIN) was DMEM. The culture medium for COLO205, BXPC3 (2 mM glutamin, 10 mM HEPES), Panc2.03 (15FBS, 1 mM NaPyr, 1×MEM-NEAA, […], 10 mM HEPES), H2122, OVCAR3 (1 mM NaPyr, 10 ug/ml human insulin, 10 mM HEPES, 2.5 g/L glucose), Molt-4 (HEPES, 2.5 g/l glocose), Jurkat (HEPES, 2.5 g/l glocose) was RPMI-1640, the culture medium for SK-MES-1 was Eagle's MEM, the culture medium for 2-LMP and DY36T2 was IMEM, and the culture medium for SUM102 (5 ug/ml insulin) was F-12K. The cell viability was determined by ATPLite Assay Kit. If the IC50 value was lower than 62.5 ng/mL, the cells were treated with higher concentration of CTB006 in the second round of experiments to determine IC50 value.

MIA-PaCa-2 = test: as above; format: cell-based; details: MIA-PaCa-2, Pancreatic cancer
Protocol: as §1

BXPC3 = test: as above; format: cell-based; details: BXPC3, Pancreatic cancer
Protocol: as §1

Panc2.03 = test: as above; format: cell-based; details: Panc2.03, Pancreatic cancer
Protocol: as §1

SW480 = test: as above; format: cell-based; details: SW480, Colorectal cancer
Protocol: as §1

HCT116 = test: as above; format: cell-based; details: HCT116, Colorectal cancer
Protocol: as §1

COLO205 = test: as above; format: cell-based; details: COLO205, Colorectal cancer
Protocol: as §1

SUM102 = test: as above; format: cell-based; details: SUM102, Breast cancer
Protocol: as §1

MDA-MB-231 = test: as above; format: cell-based; details: MDA-MB-231, Breast cancer
Protocol: as §1

SK-Hep-1 = test: as above; format: cell-based; details: SK-Hep-1, Liver cancer
Protocol: as §1

SK-MES-1 = test: as above; format: cell-based; details: SK-MES-1, Lung cancer
Protocol: as §1

H2122 = test: as above; format: cell-based; details: H2122, Lung cancer
Protocol: as §1

MDA-MB-453 = test: In vitro cytotoxic sensitivity of CTB006; format: cell-based, human; details: MDA-MB-453, Breast cancer
BT474 = test: In vitro cytotoxic sensitivity of CTB006; format: cell-based, human; details: BT474, Breast cancer

For “HuCTB006: Monospecific humanized chimeric monoclonal antibody directed to TRAIL-R2 receptor; heavy chain SEQ ID NO: 14, light chain SEQ ID NO: 12”, the “T/C % (Calculated using tumor volumes)” value (colon cancer, CS182, 5#) was 102.39%, the “Time of tumor volume changed significantly” value (colon cancer, CS182, 5#) was 3 and the “Tumor Volume Mean ± SEM” value (colon cancer, CS182, 5#) was 0.95 ± 0.06 cm^3. The “Tumor weight Mean ± SEM” value (colon cancer, CS182, 5#) was 0.64 ± 0.06 g, the “TGI (Calculated using tumor volumes)” value (colon cancer, CS182, 5#; 10 mg/kg) was −21.15% and the “TGI (Calculated using tumor weight)” value (colon cancer, CS182, 5#; 10 mg/kg) was −9.22%. The “TGI (Calculated using tumor volumes)” value (colon cancer, CS182, 5#; listed as HUCTB006, 10 mg/kg) was −21.15%, the “TGI (Calculated using tumor weight)” value (colon cancer, CS182, 5#; listed as HUCTB006, 10 mg/kg) was −9.22% and the “In vitro cytotoxic sensitivity of CTB006” value (HCC1954) was “Non-responder”. The “In vitro cytotoxic sensitivity of CTB006” value 7402 was “Non-responder”, the “In vitro cytotoxic sensitivity of CTB006” value (Daudi) was “Non-responder” and the “In vitro cytotoxic sensitivity of CTB006” value (A549) was “Non-responder”. The “In vitro cytotoxic sensitivity of CTB006” value (PANC-1) was “Non-responder”, the “In vitro cytotoxic sensitivity of CTB006” value (N87) was “Non-responder” and the “In vitro cytotoxic sensitivity of CTB006” value (BGC803) was “Non-responder”. For the same substance, the “In vitro cytotoxic sensitivity of CTB006” value (BT-20) was “Non-responder”, the “In vitro cytotoxic sensitivity of CTB006” value (2-LMP) was “Responder” and the “In vitro cytotoxic sensitivity of CTB006” value (MIA-PaCa-2) was “Responder”. The “In vitro cytotoxic sensitivity of CTB006” value (BXPC3) was “Responder”, the “In vitro cytotoxic sensitivity of CTB006” value (Panc2.03) was “Partial-responder” and the “In vitro cytotoxic sensitivity of CTB006” value (SW480) was “Partial-responder”. For the same substance, the “In vitro cytotoxic sensitivity of CTB006” value (HCT116) was “Responder”, the “In vitro cytotoxic sensitivity of CTB006” value (COLO205) was “Responder” and the “In vitro cytotoxic sensitivity of CTB006” value (SUM102) was “Partial-responder”. For the same substance, the “In vitro cytotoxic sensitivity of CTB006” value (MDA-MB-231) was “Responder”, the “In vitro cytotoxic sensitivity of CTB006” value (SK-Hep-1) was “Partial-responder” and the “In vitro cytotoxic sensitivity of CTB006” value (SK-MES-1) was “Responder”. For the same substance, the “In vitro cytotoxic sensitivity of CTB006” value (H2122) was “Responder”, the “In vitro cytotoxic sensitivity of CTB006” value (MDA-MB-453) was “Non-responder” and the “In vitro cytotoxic sensitivity of CTB006” value (BT474) was “Non-responder”.
